Laboratory results from patent publication US20260061032A1 (GI INNOVATION, published 2026).

B1: GI-108B1 (Anti-CD73 Ab-hIgG4 Fc-hIL2v3 fusion protein dimer) (antibody)
heavy: QVQLVQSGAEVKKPGSSVKVSCKFSGGSFTSYSFSWVRQAPGQGLEWMGRIIPVLTTTDYAQKFRDRVTITADESTSTAYMELSGLRSEDTAVYYCASGLKKNWYFDLWGRGALITVSSASTKGPSVFPLAPCSRSTSESTAALGCLVKDYFPEPVTVSWNSGALTSGVHTFPAVLQSSGLYSLSSVVTVPSSSLGTKTYTCNVDHKPSNTKVDKRVESKYGPPCPPCPAPEAAGGPSVFLFPPKPKDQLMISRTPEVTCVVVDVSQEDPEVQFNWYVDGVEVHNAKTKPREEQFNSTYRVVSVLTVLHQDWLNGKEYKCKVSNKGLPSSIEKTISKAKGQPREPQVYTLPPSQEEMTKNQVSLTCLVKGFYPSDIAVEWESNGQPENNYKTTPPVLDSDGSFFLYSRLTVDKSRWQEGNVFSCSVLHEALHNHYTQKSLSLSLGGGGGSGGGGSAPTSSSTKKTQLQLEHLLLDLQMILNGINNYKNPKLTAMLTAKFYMPKKATELKHLQCLERELKPLEEVLNLAQSKNFHLRPRDLISNINVIVLELKGSETTFMCEYADETATIVEFLNRWITFCQSIISTLT
light: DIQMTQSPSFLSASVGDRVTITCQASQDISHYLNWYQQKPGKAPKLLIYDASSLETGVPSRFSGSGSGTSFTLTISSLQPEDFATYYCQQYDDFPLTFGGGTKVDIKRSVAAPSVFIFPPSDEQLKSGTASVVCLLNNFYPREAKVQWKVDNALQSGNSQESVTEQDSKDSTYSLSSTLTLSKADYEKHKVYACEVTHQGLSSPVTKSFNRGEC
notes: IgG4 anti-CD73 antibody with the IL-2 variant fused to the C-terminus of each heavy chain; expressed in CHO cells, purified as a dimer
B2: GI-108A1 (AHF10240) (Anti-CD73 sdAb-hIgG4 Fc-hIL2v3 fusion protein dimer) (Fc fusion)
chain: EVQLVESGGGVVQTGGSLRLSCAASGRTFTHLAMGWFRQAPGKEREFVAAISNSGAGTQFADSVKGRFTISRDNAKNTVYLQMNSLKPEDTAVYYCAADWGTRDSPSKLNAVYDYWGRGTQVTVSSGGGGSAESKYGPPCPPCPAPEAAGGPSVFLFPPKPKDQLMISRTPEVTCVVVDVSQEDPEVQFNWYVDGVEVHNAKTKPREEQFNSTYRVVSVLTVLHQDWLNGKEYKCKVSNKGLPSSIEKTISKAKGQPREPQVYTLPPSQEEMTKNQVSLTCLVKGFYPSDIAVEWESNGQPENNYKTTPPVLDSDGSFFLYSRLTVDKSRWQEGNVFSCSVLHEALHNHYTQKSLSLSLGGGGGSGGGGSGGGGSAPTSSSTKKTQLQLEHLLLDLQMILNGINNYKNPKLTAMLTAKFYMPKKATELKHLQCLERELKPLEEVLNLAQSKNFHLRPRDLISNINVIVLELKGSETTFMCEYADETATIVEFLNRWITFCQSIISTLT
notes: Homodimer through hinge cysteines
B3: GI-108A1 (AHP04167) (Anti-CD73 sdAb-hIgG4 Fc-hIL2v3 fusion protein dimer) (Fc fusion)
chain: EVQLVESGGGLVQAGGSLRLSCVVSGRTFSNYHMGWFRQAPGKEREFVAVIGRSGGPTYYADSVKGRFTISRDNAKNTVYLQMNSLKPEDTAVYYCAGDWRNSDSPSKLKPVYDYWGQGTQVTVSSGGGGSAESKYGPPCPPCPAPEAAGGPSVFLFPPKPKDQLMISRTPEVTCVVVDVSQEDPEVQFNWYVDGVEVHNAKTKPREEQFNSTYRVVSVLTVLHQDWLNGKEYKCKVSNKGLPSSIEKTISKAKGQPREPQVYTLPPSQEEMTKNQVSLTCLVKGFYPSDIAVEWESNGQPENNYKTTPPVLDSDGSFFLYSRLTVDKSRWQEGNVFSCSVLHEALHNHYTQKSLSLSLGGGGGSGGGGSGGGGSAPTSSSTKKTQLQLEHLLLDLQMILNGINNYKNPKLTAMLTAKFYMPKKATELKHLQCLERELKPLEEVLNLAQSKNFHLRPRDLISNINVIVLELKGSETTFMCEYADETATIVEFLNRWITFCQSIISTLT
notes: as for B2

Assays:
mCD73 = biological target: T1, mCD73 (UniProt Q61503 29-551, limits assumed); assay: SPR, Biacore T200; binder captured on CM5 chip by human antibody capture kit, CD73 as analyte
T1 construct: Species told only by the prefix 'm'
T1 sequence (looked up): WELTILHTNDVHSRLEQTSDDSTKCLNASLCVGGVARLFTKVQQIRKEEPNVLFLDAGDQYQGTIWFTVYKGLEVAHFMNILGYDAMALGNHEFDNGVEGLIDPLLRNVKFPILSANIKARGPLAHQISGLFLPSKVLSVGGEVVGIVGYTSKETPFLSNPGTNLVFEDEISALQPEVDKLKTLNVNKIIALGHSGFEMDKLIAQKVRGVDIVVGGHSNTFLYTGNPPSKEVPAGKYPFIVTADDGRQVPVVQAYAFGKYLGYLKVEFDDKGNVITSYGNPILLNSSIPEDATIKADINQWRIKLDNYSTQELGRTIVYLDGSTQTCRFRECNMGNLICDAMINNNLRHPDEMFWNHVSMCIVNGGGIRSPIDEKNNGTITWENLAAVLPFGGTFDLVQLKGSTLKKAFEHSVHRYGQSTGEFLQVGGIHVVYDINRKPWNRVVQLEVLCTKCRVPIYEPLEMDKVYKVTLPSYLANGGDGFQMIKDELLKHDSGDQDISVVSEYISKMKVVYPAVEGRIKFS
Description: (§1) To quantitatively analyze the binding affinities to CD73 and IL-2 receptors of […] and GI-108B1, in which the anti-CD73 antibody that specifically binds to CD73 was linked to the IL-2 variant, and Aldesleukin (trade name: PROLEUKIN®, Novartis), the binding affinities were measured using SPR (surface plasmon resonance). Using a BIACORE™ T200 instrument (Cytiva), the binding affinities of GI-108A1 (AHF10240), GI-108A1 (AHP04167) and GI-108B1 to hCD73, cyCD73, mCD73, hIL-2Rα, hIL-2Rβ, and hIL-2Rβγ were analyzed. Oleclumab (Astrazeneca), produced on order from Ybiologics, Inc., was used as a control.
(§2) Specifically, to analyze the binding affinities to hCD73, cyCD73, and mCD73, each of GI-108A1 (AHF10240), GI-108A1 (AHP04167), GI-108B1, and Oleclumab was diluted in HBS-EP+ buffer (Cytiva, USA) and reversibly immobilized on Sensor Chip CM5 (Cytiva, USA) using a human antibody capture kit (Cytiva, USA). CD73 was diluted in HBS-EP+ buffer and then analyzed for association and dissociation at a flow rate of 30 μL/min for 5 minutes each.

hCD73 = biological target: T2, hCD73 (human, UniProt P21589 27-549, limits assumed); assay: as above
T2 construct: also called human CD73; recombinant human CD73 protein
T2 sequence: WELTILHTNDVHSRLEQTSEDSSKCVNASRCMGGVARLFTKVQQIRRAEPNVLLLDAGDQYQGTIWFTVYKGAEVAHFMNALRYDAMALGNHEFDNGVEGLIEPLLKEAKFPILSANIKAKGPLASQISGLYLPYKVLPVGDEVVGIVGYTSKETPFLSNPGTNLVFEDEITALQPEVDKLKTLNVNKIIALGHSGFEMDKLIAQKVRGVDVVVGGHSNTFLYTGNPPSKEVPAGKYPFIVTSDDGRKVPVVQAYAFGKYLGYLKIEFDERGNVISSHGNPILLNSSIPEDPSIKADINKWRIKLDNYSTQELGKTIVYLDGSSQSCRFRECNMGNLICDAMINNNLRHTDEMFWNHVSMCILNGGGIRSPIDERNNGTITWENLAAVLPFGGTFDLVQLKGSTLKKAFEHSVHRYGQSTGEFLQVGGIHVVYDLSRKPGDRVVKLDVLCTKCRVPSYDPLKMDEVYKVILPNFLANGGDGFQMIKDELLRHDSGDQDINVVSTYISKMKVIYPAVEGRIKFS
Description: as §1, §2

cyCD73 = biological target: T3, cyCD73; assay: as above
T3 construct: Species told only by the prefix 'cy'
Description: as §1, §2

hIL-2Rβγ = biological target: T4, hIL-2Rβγ (human, UniProt P14784 27-239; P31785 23-254); assay: SPR, Biacore T200; biotinylated CD73 on SA chip, binder bound to CD73, hIL-2Rβγ as analyte, single cycle kinetics
T4 construct: Soluble beta/gamma heterodimer used as SPR analyte
T4 sequence (looked up) 1: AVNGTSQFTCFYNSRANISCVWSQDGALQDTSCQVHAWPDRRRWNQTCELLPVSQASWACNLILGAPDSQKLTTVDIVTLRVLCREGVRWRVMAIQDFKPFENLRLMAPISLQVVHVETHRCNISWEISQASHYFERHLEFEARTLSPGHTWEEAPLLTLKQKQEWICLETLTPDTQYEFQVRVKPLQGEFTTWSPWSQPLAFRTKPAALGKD
T4 sequence (looked up) 2: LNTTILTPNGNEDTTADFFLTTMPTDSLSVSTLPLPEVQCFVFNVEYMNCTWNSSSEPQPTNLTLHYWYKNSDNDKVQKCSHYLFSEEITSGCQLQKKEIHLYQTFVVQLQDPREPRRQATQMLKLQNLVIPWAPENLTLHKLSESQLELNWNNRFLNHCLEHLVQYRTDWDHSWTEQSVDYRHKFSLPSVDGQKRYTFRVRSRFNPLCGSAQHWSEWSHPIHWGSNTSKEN
Description: as §1
To analyze the binding affinity to hIL-2Ra, hIL-2Ra was […] immobilized on Sensor Chip CM5 using a His capture kit (Cytiva, USA). Each of GI-108A1 (AHF10240), GI-108A1 (AHP04167), GI-108B1 and PROLEUKIN®, diluted in HBS-EP+ buffer, was then applied for 1 minute, followed by analysis of association and dissociation. In addition, the binding affinities to hIL-2RB and hIL-2Rβγ were measured by a three-step analysis method including treating Sensor Chip SA (Cytiva, USA) with biotinylated CD73, and then binding each of GI-108A1 (AHF10240), GI-108A1 (AHP04167), GI-108B1 and PROLEUKIN® to CD73, followed by treatment with each of hIL-2RB and hIL-2Rβγ diluted in HBS-P+ buffer (Cytiva, USA). For hIL-2RB, association was performed for 1 minute and dissociation for 1 minute, and for hIL-2Rβγ, association was performed for 5 minutes and dissociation for 2 hours at each concentration, in a single cycle kinetics analysis. Each sensorgram was normalized and subtracted compared to a blank cell to calculate affinity.

Binder | binding result (mCD73) | Kd (hCD73) | Kd (cyCD73) | Kd (hIL-2Rβγ) | Kd (mCD73)
B1 | no binding | 0.0894 nM | 0.113 nM | 0.2 nM | –
B2 | – | 0.0502 nM | 0.0841 nM | 0.417 nM | 2.62 nM
B3 | – | 0.088 nM | 0.0708 nM | 0.327 nM | 3.45 nM
